From patent US20250381307A1, “RETRO-AAV AND USE IN TREATING NEURODEGENERATIVE DISEASES” (priority 2023, published 2025)

System: striatonigral projection neurons (striatal MSNs)
Assay: Retrograde labeling of striatal MSNs after AAV injection into the SNr (EYFP+ cell counting)
Format: in vivo, mice
Settings: AAV8R capsid mutants; numbers of labeled neurons per animal
Source text: Brain profiles of two epigenetic marks for enhancers and promoters, monomethylation of histone H3 lysine 4 (H3K4me1) and acetylation of histone H3 lysine 27 (H3K27ac) were checked and approximately 2 kilobase-long sequences around the transcriptional start site (TSS) that have high levels of H3K4me1 and/or H3K27ac were identified in mouse brain. Homologous sequences at equivalent positions of the human genome were then cloned onto an AAV backbone, and the activity of the homologous sequences in directing reporter expression was tested in mice after injections of AAVs into the SNr (FIG. 3A-C, TABLE 3).
Mice were anesthetized with sodium pentobarbital (Nembutal; 80 mg/kg, i.p.), and then placed into a stereotaxic device (KOPF). Eye cream was applied on both corneas to avoid dehydration. The skull above the targeted areas was thinned with a dental drill and carefully removed. Injections were conducted with a 10 μL syringe connected to a 33-Gauge needle (Neuros; Hamilton), using a microsyringe pump (Legato 130, KD Scientific). A total volume of 200 nL virus was injected into the SNr at a speed of 20 nL/min. The coordinates for the SNr were 3.4 mm posterior, 1.3 mm lateral, 4.8 mm ventral to the bregma.
Images were acquired using a confocal microscope (Carl Zeiss, LSM880) and an Axiolmager.Z1 microscope with apotome (Carl Zeiss). Brain structures were identified microscopically and in digital photos using a mouse brain atlas. To analyze the number of EYFP+ cells in the striatum, slices from rostral to caudal striatum were used. Every sixth section was analyzed, and numbers of EYFP+ cells were multiplied by six to acquire the approximate total number and mean number of cells per animal. Images were processed using ImageJ (NIH, USA), and final quantifications were independently performed manually by two blinded experimenters.

Molecule	Labeling Efficiency in Striatonigral Pathway
AAV8R10: AAV8R capsid mutant V125I + A606S (SEQ ID NO: 11) (protein) MAADGYLPDWLEDNLSEGIREWWALKPGAPKPKANQQKQDDGRGLVLPGYKYLGPFNGLDKGEPVNAADAAALEHDKAYDQQLQAGDNPYLRYNHADAEFQERLQEDTSFGGNLGRAVFQAKKRILEPLGLVEEGAKTAPGKKRPVEPSPQRSPDSSTGIGKKGQQPARKRLNFGQTGDSESVPDPQPLGEPPAAPSGVGPNTMAAGGGAPMADNNEGADGVGSSSGNWHCDSTWLGDRVITTSTRTWALPTYNNHLYKQISNGTSGGATNDNTYFGYSTPWGYFDFNRFHCHFSPRDWQRLINNNWGFRPKRLSFKLFNIQVKEVTQNEGTKTIANNLTSTIQVFTDSEYQLPYVLGSAHQGCLPPFPADVFMIPQYGYLTLNDGSQAVGRSSFYCLEYFPSQMLRTGNNFQFTYTFEDVPFHSSYAHSQSLDRLMNPLIDQYLYYLSRTQTTGGTANTQTLGFSQGGPNTMANQAKNWLPGPCYRQQRVSTTTGQNNNSNFAWTAGTKYHLNGRNSLANPGIAMATHKDDEERFFPSNGILIFGKQNAARDNADYSDVMLTSEEEIKTTNPVATEEYGIVADNLQRGNLADQDYTKTARQAATSDVNSQGALPGMVWQNRDVYLQGPIWAKIPHTDGNFHPSPLMGGFGLKHPPPQILIKNTPVPADPPTTFNQSKLNSFITQYSTGQVSVEIEWELQKENSKRWNPEIQYTSNYYKSINVDFAVNTEGVYSEPRPIGTRYLTRNL	+ (<5k)
AAV8R1: AAV8R capsid mutant V183E (SEQ ID NO: 2) (protein) MAADGYLPDWLEDNLSEGIREWWALKPGAPKPKANQQKQDDGRGLVLPGYKYLGPFNGLDKGEPVNAADAAALEHDKAYDQQLQAGDNPYLRYNHADAEFQERLQEDTSFGGNLGRAVFQAKKRVLEPLGLVEEGAKTAPGKKRPVEPSPQRSPDSSTGIGKKGQQPARKRLNFGQTGDSESEPDPQPLGEPPAAPSGVGPNTMAAGGGAPMADNNEGADGVGSSSGNWHCDSTWLGDRVITTSTRTWALPTYNNHLYKQISNGTSGGATNDNTYFGYSTPWGYFDFNRFHCHFSPRDWQRLINNNWGFRPKRLSFKLFNIQVKEVTQNEGTKTIANNLTSTIQVFTDSEYQLPYVLGSAHQGCLPPFPADVFMIPQYGYLTLNDGSQAVGRSSFYCLEYFPSQMLRTGNNFQFTYTFEDVPFHSSYAHSQSLDRLMNPLIDQYLYYLSRTQTTGGTANTQTLGFSQGGPNTMANQAKNWLPGPCYRQQRVSTTTGQNNNSNFAWTAGTKYHLNGRNSLANPGIAMATHKDDEERFFPSNGILIFGKQNAARDNADYSDVMLTSEEEIKTTNPVATEEYGIVADNLQRGNLADQDYTKTARQAATADVNSQGALPGMVWQNRDVYLQGPIWAKIPHTDGNFHPSPLMGGFGLKHPPPQILIKNTPVPADPPTTFNQSKLNSFITQYSTGQVSVEIEWELQKENSKRWNPEIQYTSNYYKSINVDFAVNTEGVYSEPRPIGTRYLTRNL	+ (<5k)
AAV8R13: AAV8R capsid mutant V125I + F536Y + T495A (SEQ ID NO: 14) (protein) MAADGYLPDWLEDNLSEGIREWWALKPGAPKPKANQQKQDDGRGLVLPGYKYLGPFNGLDKGEPVNAADAAALEHDKAYDQQLQAGDNPYLRYNHADAEFQERLQEDTSFGGNLGRAVFQAKKRILEPLGLVEEGAKTAPGKKRPVEPSPQRSPDSSTGIGKKGQQPARKRLNFGQTGDSESVPDPQPLGEPPAAPSGVGPNTMAAGGGAPMADNNEGADGVGSSSGNWHCDSTWLGDRVITTSTRTWALPTYNNHLYKQISNGTSGGATNDNTYFGYSTPWGYFDFNRFHCHFSPRDWQRLINNNWGFRPKRLSFKLFNIQVKEVTQNEGTKTIANNLTSTIQVFTDSEYQLPYVLGSAHQGCLPPFPADVFMIPQYGYLTLNDGSQAVGRSSFYCLEYFPSQMLRTGNNFQFTYTFEDVPFHSSYAHSQSLDRLMNPLIDQYLYYLSRTQTTGGTANTQTLGFSQGGPNTMANQAKNWLPGPCYRQQRVSTTAGQNNNSNFAWTAGTKYHLNGRNSLANPGIAMATHKDDEERYFPSNGILIFGKQNAARDNADYSDVMLTSEEEIKTTNPVATEEYGIVADNLQRGNLADQDYTKTARQAATADVNSQGALPGMVWQNRDVYLQGPIWAKIPHTDGNFHPSPLMGGFGLKHPPPQILIKNTPVPADPPTTFNQSKLNSFITQYSTGQVSVEIEWELQKENSKRWNPEIQYTSNYYKSINVDFAVNTEGVYSEPRPIGTRYLTRNL	++ (5k-10k)
AAV8R14: AAV8R capsid mutant V125I + A606S + T495A (SEQ ID NO: 15) (protein) MAADGYLPDWLEDNLSEGIREWWALKPGAPKPKANQQKQDDGRGLVLPGYKYLGPFNGLDKGEPVNAADAAALEHDKAYDQQLQAGDNPYLRYNHADAEFQERLQEDTSFGGNLGRAVFQAKKRILEPLGLVEEGAKTAPGKKRPVEPSPQRSPDSSTGIGKKGQQPARKRLNFGQTGDSESVPDPQPLGEPPAAPSGVGPNTMAAGGGAPMADNNEGADGVGSSSGNWHCDSTWLGDRVITTSTRTWALPTYNNHLYKQISNGTSGGATNDNTYFGYSTPWGYFDFNRFHCHFSPRDWQRLINNNWGFRPKRLSFKLFNIQVKEVTQNEGTKTIANNLTSTIQVFTDSEYQLPYVLGSAHQGCLPPFPADVFMIPQYGYLTLNDGSQAVGRSSFYCLEYFPSQMLRTGNNFQFTYTFEDVPFHSSYAHSQSLDRLMNPLIDQYLYYLSRTQTTGGTANTQTLGFSQGGPNTMANQAKNWLPGPCYRQQRVSTTAGQNNNSNFAWTAGTKYHLNGRNSLANPGIAMATHKDDEERFFPSNGILIFGKQNAARDNADYSDVMLTSEEEIKTTNPVATEEYGIVADNLQRGNLADQDYTKTARQAATSDVNSQGALPGMVWQNRDVYLQGPIWAKIPHTDGNFHPSPLMGGFGLKHPPPQILIKNTPVPADPPTTFNQSKLNSFITQYSTGQVSVEIEWELQKENSKRWNPEIQYTSNYYKSINVDFAVNTEGVYSEPRPIGTRYLTRNL	++ (5k-10k)
AAV8R11: AAV8R capsid mutant V125I + T495A (SEQ ID NO: 12) (protein) MAADGYLPDWLEDNLSEGIREWWALKPGAPKPKANQQKQDDGRGLVLPGYKYLGPFNGLDKGEPVNAADAAALEHDKAYDQQLQAGDNPYLRYNHADAEFQERLQEDTSFGGNLGRAVFQAKKRILEPLGLVEEGAKTAPGKKRPVEPSPQRSPDSSTGIGKKGQQPARKRLNFGQTGDSESVPDPQPLGEPPAAPSGVGPNTMAAGGGAPMADNNEGADGVGSSSGNWHCDSTWLGDRVITTSTRTWALPTYNNHLYKQISNGTSGGATNDNTYFGYSTPWGYFDFNRFHCHFSPRDWQRLINNNWGFRPKRLSFKLFNIQVKEVTQNEGTKTIANNLTSTIQVFTDSEYQLPYVLGSAHQGCLPPFPADVFMIPQYGYLTLNDGSQAVGRSSFYCLEYFPSQMLRTGNNFQFTYTFEDVPFHSSYAHSQSLDRLMNPLIDQYLYYLSRTQTTGGTANTQTLGFSQGGPNTMANQAKNWLPGPCYRQQRVSTTAGQNNNSNFAWTAGTKYHLNGRNSLANPGIAMATHKDDEERFFPSNGILIFGKQNAARDNADYSDVMLTSEEEIKTTNPVATEEYGIVADNLQRGNLADQDYTKTARQAATADVNSQGALPGMVWQNRDVYLQGPIWAKIPHTDGNFHPSPLMGGFGLKHPPPQILIKNTPVPADPPTTFNQSKLNSFITQYSTGQVSVEIEWELQKENSKRWNPEIQYTSNYYKSINVDFAVNTEGVYSEPRPIGTRYLTRNL	+ (<5k)
